As a reminder, the Kd is a measure of binding affinity in units of concentration. Read a low Kd as higher affinity.

The values below come from article PMC10786891, “Massively parallel profiling of RNA-targeting CRISPR-Cas13d”.

T1: EsCas13d, nuclease-dead (Eubacterium siraeum, UniProt B0MS50, R295A;H300A;R849A;H854A)
T1 sequence: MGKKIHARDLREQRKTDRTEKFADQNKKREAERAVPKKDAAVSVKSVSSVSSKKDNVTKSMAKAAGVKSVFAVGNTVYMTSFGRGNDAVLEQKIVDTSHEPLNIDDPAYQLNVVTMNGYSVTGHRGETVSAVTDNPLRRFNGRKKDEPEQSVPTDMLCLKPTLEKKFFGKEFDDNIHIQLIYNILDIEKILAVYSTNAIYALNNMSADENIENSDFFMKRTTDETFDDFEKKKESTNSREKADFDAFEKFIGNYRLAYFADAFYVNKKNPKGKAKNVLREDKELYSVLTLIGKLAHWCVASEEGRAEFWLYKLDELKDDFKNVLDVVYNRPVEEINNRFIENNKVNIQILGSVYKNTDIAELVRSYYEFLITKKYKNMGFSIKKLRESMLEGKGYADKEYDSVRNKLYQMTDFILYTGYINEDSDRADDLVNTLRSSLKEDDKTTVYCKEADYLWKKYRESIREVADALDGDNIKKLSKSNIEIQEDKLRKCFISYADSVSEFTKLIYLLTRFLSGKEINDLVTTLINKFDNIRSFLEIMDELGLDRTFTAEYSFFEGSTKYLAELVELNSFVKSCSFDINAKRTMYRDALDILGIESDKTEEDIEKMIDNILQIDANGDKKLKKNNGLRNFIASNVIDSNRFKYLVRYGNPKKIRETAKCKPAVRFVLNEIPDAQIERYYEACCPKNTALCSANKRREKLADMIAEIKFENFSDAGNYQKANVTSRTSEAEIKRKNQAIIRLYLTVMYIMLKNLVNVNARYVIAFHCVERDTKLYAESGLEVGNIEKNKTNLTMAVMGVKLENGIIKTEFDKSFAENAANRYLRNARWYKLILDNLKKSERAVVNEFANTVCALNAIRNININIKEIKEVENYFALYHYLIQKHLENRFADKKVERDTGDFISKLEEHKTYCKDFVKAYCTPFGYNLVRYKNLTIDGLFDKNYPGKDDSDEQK

B1: target 2 MT 5'PFS UGC 3'PFS CUA (mixed)
RNA 1: CACCCGUGCAAAAUUGCAGGGGUCUAAAACCUUCUCCAAAUUGUUUCAUCCU
RNA 2: GGGAAUGGAUCCACAUCUACGAAUUCUGCAGGAUGAAACAAUUUGGAGAAGCUAAGAUCGGAAGAGCACACGU
B2: target 2 MT 5'PFS AUC 3'PFS AGC (mixed)
RNA 1: B1 RNA 1
RNA 2: B1 RNA 2 with U27A, G28U, C52A, U53G, A54C
B3: target 2 MT 5'PFS GUA 3'PFS GCG (mixed)
RNA 1: B1 RNA 1
RNA 2: B1 RNA 2 with U27G, G28U, C29A, C52G, U53C, A54G
B4: target 2 MT 5'PFS AUG 3'PFS CUU (mixed)
RNA 1: B1 RNA 1
RNA 2: B1 RNA 2 with U27A, G28U, C29G, A54U
B5: target 2 MT 5'PFS CUC 3'PFS AGU (mixed)
RNA 1: B1 RNA 1
RNA 2: B1 RNA 2 with U27C, G28U, C52A, U53G, A54U
B6: target 2 MT 5'PFS GUA 3'PFS GCC (mixed)
RNA 1: B1 RNA 1
RNA 2: B1 RNA 2 with U27G, G28U, C29A, C52G, U53C, A54C
B7: target 2 MT 5'PFS AUG 3'PFS CUA (mixed)
RNA 1: B1 RNA 1
RNA 2: B1 RNA 2 with U27A, G28U, C29G
B8: target 2 MT 5'PFS ACU 3'PFS UAC (mixed)
RNA 1: B1 RNA 1
RNA 2: B1 RNA 2 with U27A, G28C, C29U, C52U, U53A, A54C
B9: target 2 MT 5'PFS ACU 3'PFS UAG (mixed)
RNA 1: B1 RNA 1
RNA 2: B1 RNA 2 with U27A, G28C, C29U, C52U, U53A, A54G
B10: target 2 MT 5'PFS AUC 3'PFS AGA (mixed)
RNA 1: B1 RNA 1
RNA 2: B1 RNA 2 with U27A, G28U, C52A, U53G
B11: target 2 MT 5'PFS CUC 3'PFS AGC (mixed)
RNA 1: B1 RNA 1
RNA 2: B1 RNA 2 with U27C, G28U, C52A, U53G, A54C
B12: target 2 MT 5'PFS GUU 3'PFS UAU (mixed)
RNA 1: B1 RNA 1
RNA 2: B1 RNA 2 with U27G, G28U, C29U, C52U, U53A, A54U
B13: target 2 MT 5'PFS UGC 3'PFS CUU (mixed)
RNA 1: B1 RNA 1
RNA 2: B1 RNA 2 with A54U
B14: target 2 MT 5'PFS GGC 3'PFS ACU (mixed)
RNA 1: B1 RNA 1
RNA 2: B1 RNA 2 with U27G, C52A, U53C, A54U
B15: target 2 MT 5'PFS UGC 3'PFS CUG (mixed)
RNA 1: B1 RNA 1
RNA 2: B1 RNA 2 with A54G
B16: target 2 MT 5'PFS ACU 3'PFS UAA (mixed)
RNA 1: B1 RNA 1
RNA 2: B1 RNA 2 with U27A, G28C, C29U, C52U, U53A
B17: target 2 MT 5'PFS UCU 3'PFS ACU (mixed)
RNA 1: B1 RNA 1
RNA 2: B1 RNA 2 with G28C, C29U, C52A, U53C, A54U
B18: target 2 MT 5'PFS GUU 3'PFS UAC (mixed)
RNA 1: B1 RNA 1
RNA 2: B1 RNA 2 with U27G, G28U, C29U, C52U, U53A, A54C
B19: target 2 MT 5'PFS ACU 3'PFS UAU (mixed)
RNA 1: B1 RNA 1
RNA 2: B1 RNA 2 with U27A, G28C, C29U, C52U, U53A, A54U
B20: target 2 MT 5'PFS CAC 3'PFS AAC (mixed)
RNA 1: B1 RNA 1
RNA 2: B1 RNA 2 with U27C, G28A, C52A, U53A, A54C
B21: target 2 MT 5'PFS CUC 3'PFS AGA (mixed)
RNA 1: B1 RNA 1
RNA 2: B1 RNA 2 with U27C, G28U, C52A, U53G
B22: target 2 MT 5'PFS GGC 3'PFS ACA (mixed)
RNA 1: B1 RNA 1
RNA 2: B1 RNA 2 with U27G, C52A, U53C
B23: target 2 MT 5'PFS ACG 3'PFS AAG (mixed)
RNA 1: B1 RNA 1
RNA 2: B1 RNA 2 with U27A, G28C, C29G, C52A, U53A, A54G
B24: target 2 MT 5'PFS UCG 3'PFS UGU (mixed)
RNA 1: B1 RNA 1
RNA 2: B1 RNA 2 with G28C, C29G, C52U, U53G, A54U
B25: target 2 MT 5'PFS GUU 3'PFS UAA (mixed)
RNA 1: B1 RNA 1
RNA 2: B1 RNA 2 with U27G, G28U, C29U, C52U, U53A
B26: target 2 MT 5'PFS UAU 3'PFS GGC (mixed)
RNA 1: B1 RNA 1
RNA 2: B1 RNA 2 with G28A, C29U, C52G, U53G, A54C
B27: target 2 MT 5'PFS AUG 3'PFS CUC (mixed)
RNA 1: B1 RNA 1
RNA 2: B1 RNA 2 with U27A, G28U, C29G, A54C
B28: target 2 MT 5'PFS UGC 3'PFS CUC (mixed)
RNA 1: B1 RNA 1
RNA 2: B1 RNA 2 with A54C
B29: target 2 MT 5'PFS ACG 3'PFS AAC (mixed)
RNA 1: B1 RNA 1
RNA 2: B1 RNA 2 with U27A, G28C, C29G, C52A, U53A, A54C
B30: target 2 MT 5'PFS CUC 3'PFS AGG (mixed)
RNA 1: B1 RNA 1
RNA 2: B1 RNA 2 with U27C, G28U, C52A, U53G, A54G
B31: target 2 MT 5'PFS GGC 3'PFS ACG (mixed)
RNA 1: B1 RNA 1
RNA 2: B1 RNA 2 with U27G, C52A, U53C, A54G
B32: target 1 insG 3' of 4,insA 3' of 2 (mixed)
RNA 1: CACCCGUGCAAAAAUGCAGGGGUCUAAAACUGAGCGGAUAACCUCUCUAUGG
RNA 2: GGGAAUGGAUCCACAUCUACGAAUUCGUACCAUAGAGAGGUUAUCCGCGUCAACCGAGAUCGGAAGAGCACACGU
B33: target 1 insA 3' of 21,insU 3' of 6 (mixed)
RNA 1: B32 RNA 1
RNA 2: GGGAAUGGAUCCACAUCUACGAAUUCGUACCAAUAGAGAGGUUAUCCUGCUCACCGAGAUCGGAAGAGCACACGU
B34: target 1 A9C,G15U (mixed)
RNA 1: B32 RNA 1
RNA 2: GGGAAUGGAUCCACAUCUACGAAUUCGUACCAUAGAUAGGUUCUCCGCUCACCGAGAUCGGAAGAGCACACGU
B35: target 1 C2U,A9U (mixed)
RNA 1: B32 RNA 1
RNA 2: B34 RNA 2 with U37G, C43U, C50U

Substitutions are numbered along the chain they refer to. Names may count otherwise.

This data set deals with T1, EsCas13d, nuclease-dead. The data set is described as follows: crRNA (strand 1, pre-loaded); Mg2+; 40 mM Tris-HCl pH 7.5, 150 mM NaCl, 6 mM MgCl2, 1 mM DTT, 0.1% Tween-20, 0.2 mg/ml BSA; 25 C; 10 min per concentration, then washed. To be noted: tags: His6-TwinStrep-SUMO cleaved; N-terminal SNAP kept (SNAP-Surface 488); label: 3' end held by stalled T7 RNA polymerase.
The molecule B1 yielded a Kd of 16 ± 6 nM.
With B2, binding was characterised by a dissociation constant (Kd) of 21 ± 8 nM.
The figure for B3 is 6.7 ± 0.6 nM.
In turn, B4 returned a dissociation constant (Kd) of 15.4 ± 2.9 nM.
The figure for B5 is 3.5 ± 0.8 nM; for B6 it is 6.4 ± 1.5 nM.
The figure for B7 is 7.5 ± 0.9 nM; for B8 it is 6.2 ± 0.9 nM.
The figure for B9 is 3.5 ± 0.4 nM; for B10 it is around 80 nM; for B11 it is 1.98 ± 0.25 nM.
B12 displayed a Kd of 16.2 ± 2.7 nM.
The figure for B13 is around 110 nM.
The value for B14 was 21.3 ± 2.5 nM; that for B15 was 34 ± 9 nM; that for B16 was 4 ± 0.9 nM.
The value for B17 was 9.4 ± 1.8 nM; that for B18 was 22 ± 4 nM.
For the molecule B19, the Kd is 3.8 ± 0.6 nM.
The value for B20 was 1.98 ± 0.3 nM; that for B21 was 1.68 ± 0.16 nM.
Turning to B22, binding was put at a Kd of 18 ± 4 nM.
The value for B23 was 9.8 ± 1.8 nM; that for B24 was around 120 nM.
The figure for B25 is 15.3 ± 3.3 nM; for B26 it is 44 ± 12 nM.
The figure for B27 is 16 ± 5 nM; for B28 it is 26 ± 6 nM.
B29: the Kd was determined as 5.5 ± 1.2 nM.
As to B30, the Kd came out at 2.8 ± 0.5 nM.
Molecule B31 had a Kd of 15.8 ± 1.1 nM.
Regarding B32, binding was characterised by a dissociation constant (Kd) of 5.43 ± 0.18 nM.
The figure for B33 is 20.3 ± 1.5 nM.
The value for B34 was around 70 nM.
The figure for B35 is 8.5 ± 0.7 nM.
